From patent publication US5668265

Molecular target: alpha-thrombin (Homo sapiens) (UniProt P00734+P00734)
Test: SPR
Conditions: apparent
[1] = DNA segments joined 3'-3' by a single phosphodiester (inverted polarity; second segment given 5'-3'), solution competition vs immobilized consensus aptamer, same buffer, 25 C
[2] = DNA segments joined 3'-3' through glycerol phosphodiester linker L2 (both segments given 5'-3'), solution competition vs immobilized consensus …, same buffer, 25 C

For “GGTTGGGGTTGG [Compound 11 (uni-directional)]”, the Kd (hexaethylene glycol phosphodiester linker L1 between 3' end of first and 5' end of second segment (normal polarity), solution competition vs immobilized consensus aptamer, same buffer, 25 C) was 0.029 µM.

For GGTTGGTGGGTTGGT [Compound 1], the Kd [1] was 0.224 µM.

With GGTTGGTGGTTGGT [Compound 5] the Kd (DNA segments joined 3'-3' through hexaethylene glycol phosphodiester linker L1 (both segments given 5'-3'), solution competition vs immobilized consensus aptamer, 80 nM thrombin, 20 mM Tris-acetate, 140 mM NaCl, 5 mM KCl, 1 mM CaCl2, 1 mM MgCl2, pH 7.4 …) was 0.009 µM.

Sequence GGTTGGTGGTTGGT [Compound 8] has a Kd [2] of 0.029 µM.

With GGTTGGTTGGGTTGGTT [Compound 3] the Kd [1] was 0.011 µM.

Work on GGTTGGTTGGTTGGTT [Compound 2] yielded a Kd [1] of 0.312 µM.

GGTTGGTTGGTTGGTT [Compound 6] showed a Kd (DNA segments joined 3'-3' through hexaethylene glycol phosphodiester linker L1 (both segments given 5'-3'), solution competition vs immobilized consensus aptamer, same buffer, 25 C) of 0.01 µM.

In the case of GGTTGGTTGGTTGGTT [Compound 9], the Kd [2] is reported as 0.019 µM.

For TGGTTGGTGGTTGG [Compound 7], the Kd (DNA segments joined 5'-5' through hexaethylene glycol phosphodiester linker L1 (both segments given 5'-3'), solution competition vs immobilized consensus aptamer, same buffer, 25 C) was 0.023 µM.

For TTGGTTGGTTGGTTGG [Compound 4], the Kd (DNA segments joined 5'-5' by a single phosphodiester (inverted polarity; both segments given 5'-3'), solution competition vs immobilized consensus aptamer, same buffer, 25 C) was 0.025 µM.
